Among the targets are HSPA1A R36C (human, UniProt P0DMV8 1-641, R36C); HSPA1A I74T (human, UniProt P0DMV8 1-641, I74T); HSPA1A K71A (human, UniProt P0DMV8 1-641, K71A); HSPA1A S16P (human, UniProt P0DMV8 1-641, S16P); HSPA1A I480N (human, UniProt P0DMV8 1-641, I480N); HSPA1A S16Y (human, UniProt P0DMV8 1-641, S16Y); HSPA1A wild-type (WT) (human, UniProt P0DMV8 1-641); HSPA1A F592S (human, UniProt P0DMV8 1-641, F592S).

What all share (assay): ITC

Where “and” joins values, the source holds several entries; their conditions need not be identical. Identical values can stand only once.

Sequence of HSPA1A S16Y (P0DMV8 whole entry S16Y): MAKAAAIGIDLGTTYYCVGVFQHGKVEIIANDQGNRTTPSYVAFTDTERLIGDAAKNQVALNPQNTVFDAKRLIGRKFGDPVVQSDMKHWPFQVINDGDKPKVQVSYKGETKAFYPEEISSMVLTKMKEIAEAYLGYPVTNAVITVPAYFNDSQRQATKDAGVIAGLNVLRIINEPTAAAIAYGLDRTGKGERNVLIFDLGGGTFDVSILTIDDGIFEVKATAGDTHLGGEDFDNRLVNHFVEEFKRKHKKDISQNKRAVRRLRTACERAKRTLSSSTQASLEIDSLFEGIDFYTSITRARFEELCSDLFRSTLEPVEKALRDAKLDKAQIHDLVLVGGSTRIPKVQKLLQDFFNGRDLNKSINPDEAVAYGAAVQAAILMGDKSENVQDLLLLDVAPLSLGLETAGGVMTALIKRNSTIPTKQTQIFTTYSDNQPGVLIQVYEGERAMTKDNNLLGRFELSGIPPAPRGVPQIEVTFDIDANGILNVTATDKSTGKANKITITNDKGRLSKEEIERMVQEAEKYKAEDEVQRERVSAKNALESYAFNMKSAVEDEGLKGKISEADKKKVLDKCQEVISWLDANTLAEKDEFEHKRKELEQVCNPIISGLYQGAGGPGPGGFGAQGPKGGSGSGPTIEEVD
Sequence of HSPA1A R36C (P0DMV8 whole entry R36C): as the sequence (P0DMV8 whole entry S16Y) above, with Y16S, R36C counted along it
Sequence of HSPA1A F592S (P0DMV8 whole entry F592S): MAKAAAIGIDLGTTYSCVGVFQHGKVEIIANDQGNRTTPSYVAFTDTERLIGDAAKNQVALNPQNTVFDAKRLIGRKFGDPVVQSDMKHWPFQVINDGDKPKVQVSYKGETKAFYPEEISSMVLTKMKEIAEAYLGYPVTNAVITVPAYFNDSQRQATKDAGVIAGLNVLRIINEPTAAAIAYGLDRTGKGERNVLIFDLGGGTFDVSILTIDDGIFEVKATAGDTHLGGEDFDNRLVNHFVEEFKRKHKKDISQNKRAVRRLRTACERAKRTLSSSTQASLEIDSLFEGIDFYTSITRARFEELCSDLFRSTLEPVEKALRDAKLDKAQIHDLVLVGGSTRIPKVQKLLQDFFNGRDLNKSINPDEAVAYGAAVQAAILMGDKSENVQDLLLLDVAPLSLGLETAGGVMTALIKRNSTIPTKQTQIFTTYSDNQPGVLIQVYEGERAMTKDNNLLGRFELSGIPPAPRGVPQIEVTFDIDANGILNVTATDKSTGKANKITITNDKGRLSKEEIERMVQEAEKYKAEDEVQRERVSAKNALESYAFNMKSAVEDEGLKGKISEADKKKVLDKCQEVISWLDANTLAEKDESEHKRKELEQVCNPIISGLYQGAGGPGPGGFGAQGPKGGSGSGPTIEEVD
Sequence of HSPA1A S16P (P0DMV8 whole entry S16P): as the sequence (P0DMV8 whole entry S16Y) above, with Y16P counted along it
Sequence of HSPA1A wild-type (WT) (P0DMV8 whole entry): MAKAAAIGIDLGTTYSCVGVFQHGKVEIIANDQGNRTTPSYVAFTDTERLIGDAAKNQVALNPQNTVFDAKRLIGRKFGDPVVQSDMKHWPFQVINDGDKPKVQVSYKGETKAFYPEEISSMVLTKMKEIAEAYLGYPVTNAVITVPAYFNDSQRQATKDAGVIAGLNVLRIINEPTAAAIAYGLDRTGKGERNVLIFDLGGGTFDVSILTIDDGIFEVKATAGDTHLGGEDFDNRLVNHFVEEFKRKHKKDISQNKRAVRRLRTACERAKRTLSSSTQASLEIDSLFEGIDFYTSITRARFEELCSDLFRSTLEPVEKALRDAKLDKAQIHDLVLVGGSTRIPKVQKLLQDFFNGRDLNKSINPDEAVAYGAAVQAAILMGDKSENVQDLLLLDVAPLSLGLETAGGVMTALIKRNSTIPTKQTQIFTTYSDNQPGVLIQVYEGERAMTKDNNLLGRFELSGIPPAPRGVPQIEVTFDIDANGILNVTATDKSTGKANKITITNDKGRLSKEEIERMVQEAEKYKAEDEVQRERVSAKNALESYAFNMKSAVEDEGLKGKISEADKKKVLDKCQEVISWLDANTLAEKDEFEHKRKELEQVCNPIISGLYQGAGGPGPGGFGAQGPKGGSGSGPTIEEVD
Sequence of HSPA1A K71A (P0DMV8 whole entry K71A): as the sequence (P0DMV8 whole entry S16Y) above, with Y16S, K71A counted along it
Sequence of HSPA1A I480N (P0DMV8 whole entry I480N): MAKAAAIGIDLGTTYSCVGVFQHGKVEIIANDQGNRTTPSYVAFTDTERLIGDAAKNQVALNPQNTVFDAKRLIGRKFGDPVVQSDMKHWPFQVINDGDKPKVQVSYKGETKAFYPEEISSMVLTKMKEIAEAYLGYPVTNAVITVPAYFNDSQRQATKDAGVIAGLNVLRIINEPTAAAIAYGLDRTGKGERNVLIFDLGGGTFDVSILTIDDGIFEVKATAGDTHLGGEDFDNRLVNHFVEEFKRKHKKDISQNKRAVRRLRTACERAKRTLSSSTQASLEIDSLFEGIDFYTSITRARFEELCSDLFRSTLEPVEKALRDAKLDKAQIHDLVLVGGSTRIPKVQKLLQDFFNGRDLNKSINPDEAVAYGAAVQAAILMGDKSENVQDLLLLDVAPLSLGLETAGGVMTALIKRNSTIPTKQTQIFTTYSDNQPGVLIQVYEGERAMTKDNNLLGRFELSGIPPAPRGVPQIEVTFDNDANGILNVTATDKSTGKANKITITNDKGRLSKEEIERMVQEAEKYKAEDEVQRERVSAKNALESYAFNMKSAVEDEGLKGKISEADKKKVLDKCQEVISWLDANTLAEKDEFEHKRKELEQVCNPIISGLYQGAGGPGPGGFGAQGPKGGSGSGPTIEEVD
Sequence of HSPA1A I74T (P0DMV8 whole entry I74T): as the sequence (P0DMV8 whole entry S16Y) above, with Y16S, I74T counted along it

B1: protein substrate (peptide NIVAKKK) (peptide)
peptide: NIVAKKK
For the molecule B1, the dissociation constant Kd is 576 nM and 472 nM and 509 nM with HSPA1A R36C; 999 nM and 995 nM and 935 nM with HSPA1A I74T; 528 nM and 615 nM and 635 nM with HSPA1A K71A; 738 nM and 679 nM and 599 nM with HSPA1A S16P; 710 nM and 661 nM and 697 nM in the experiment with HSPA1A I480N; 335 nM and 331 nM and 315 nM with HSPA1A S16Y. The Kd in the experiment with HSPA1A wild-type (WT) is 335 nM and 529 nM and 364 nM; in the experiment with HSPA1A F592S it was 559 nM and 500 nM and 374 nM. Further, the dH in the experiment with HSPA1A R36C was -3.75 kcal/mol and -3.81 kcal/mol and -3.88 kcal/mol; in the experiment with HSPA1A I74T, -4.52 kcal/mol and -4.7 kcal/mol and -4.85 kcal/mol; with HSPA1A K71A, -2.77 kcal/mol and -3.32 kcal/mol and -2.86 kcal/mol; in the experiment with HSPA1A S16P it was -2.98 kcal/mol and -3.21 kcal/mol and -3.22 kcal/mol; in the experiment with HSPA1A I480N, -4.43 kcal/mol and -5.06 kcal/mol and -4.72 kcal/mol; in the experiment with HSPA1A S16Y it was -10.2 kcal/mol and -9.96 kcal/mol and -9.74 kcal/mol. The dH with HSPA1A wild-type (WT) is -6.18 kcal/mol and -4.72 kcal/mol and -4.79 kcal/mol; with HSPA1A F592S, -3.84 kcal/mol and -4.67 kcal/mol and -3.66 kcal/mol. Also, the “stoichiometry N” value in the experiment with HSPA1A R36C was 1.03 and 1 and 0.984; with HSPA1A I74T it was 0.998 and 0.985 and 1.01; with HSPA1A K71A it was 0.982 and 1 and 0.989; with HSPA1A S16P it was 0.991 and 1 and 1.03; in the experiment with HSPA1A I480N it was 1.02 (2×) and 1.01; with HSPA1A S16Y, 1.04 and 1.02 and 1.01. The “stoichiometry N” value with HSPA1A wild-type (WT) was 0.993 and 1 and 1.02; with HSPA1A F592S, 1.07 and 1.04 and 1.06.

Values taken from PMC6277039 (Biochemical and biophysical research communications, 2018).
